± gives the uncertainty stated by the source.
Experiment: amyloid nucleation score (Sup35N fusion, yeast selection) (log enrichment); library NNK2; higher = more nucleation; inactive = no reads after selection
Outline: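 Output and input plasmid inserts were sequenced by Illumina after psi-negative yeast carrying Sup35N fused to peptides of 20 random codons had been induced 24 hours with 100 μM copper sulfate and grown 7 days at 30°C on medium lacking adenine and uracil. The nucleation score is the DiMSum log enrichment of output over input reads, centred on the mode score of non-aggregating sequences. Sequences with under 100 input reads were excluded.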

Point of comparison: KVSKTCY, amyloid nucleation score 0.497 ± 0.24. Against it:
- DCSMVIMYFASGRSRALSNR — higher, 4.48 ± 0.067
- YWVYAGIGVRMCNRVYNNLR — within error, 0.336 ± 0.3
- RNFRSCP — within error, 0.797 ± 0.44
- PGFKSCIP — within error, 0.598 ± 0.28
- SFIVRRFSSCLHLFGDSEGY — within error, -0.098 ± 0.41
- FSIYYRGPRQVSTYRDLIPV — lower, -0.429 ± 0.37
- VDNNVGSWPLWP — within error, -0.08 ± 1
- VFMFMTQVSRKSYALPRTAA — higher, 3.02 ± 0.12
- IVSAKCYRIMVDFYYGYFRL — within error, 0.01 ± 0.65
- IKGGRQAYNPTLGEVRGCAR — higher, 2.93 ± 0.13
- SILGGVKSLRNIKLFSVWLA — lower, -0.569 ± 0.79
- AAKDSAWFHAIWVKKVRREV — within error, 1.01 ± 0.68
- QHLLLCAAM — within error, 0.399 ± 0.74
- LYKSGA — lower, -0.574 ± 0.28
- CLLIGLAMGMVCSLPLGRIL — within error, 0.123 ± 1
- NNKLSRV — within error, -0.661 ± 1.1
- MLVLSTGHPRGFWTRVVCCD — within error, 0.092 ± 1.1
- FGSVEVVRRIRSFWLFESPR — higher, 3.58 ± 0.14
- CCQSFNVNRSTLNNLGRSYL — within error, 0.848 ± 0.16
- SDGVNIMK — higher, 2.83 ± 0.18
- LCGTLLIMKRVMSGYNLQAK — lower, -0.37 ± 0.26
- SDTGGSVYMKTVGRTHLTYD — lower, -0.252 ± 0.25
- IFRDNVYFIE — within error, -0.692 ± 1
- DLVNV — higher, 1.8 ± 0.38
- AFWRLAVLFVVCRIIF — within error, 0.13 ± 0.65
- NHAVVCLDFNGGFPGQA — lower, -0.481 ± 0.53
- RVRKNCRFWSNCSCIVMVGR — higher, 5.07 ± 0.059
- NGTVDACLSLMPQGWHSGLE — higher, 3.76 ± 0.12
- NVHFFCWCFLNLCV — within error, -0.558 ± 1
- SECFRLSLRKGCNTNQVRNT — lower, -0.989 ± 0.63
- KLMWERTFVCSRKRFKTYYK — lower, -0.359 ± 0.41
- QPGSLMGNRPKESVRASRAR — within error, -0.104 ± 0.45
- FDAMSSFLQYLLTHKMWVGD — within error, 0.799 ± 0.43
- RHKYMIKVILRHFTFIIIGS — within error, -0.05 ± 0.62
- GCDVDKVNGRRVVYPDTEGL — within error, 0.697 ± 0.81
- VARFILHCY — lower, -0.492 ± 0.28
- TLLLTWQY — higher, 4.46 ± 0.067
- QCMVVQYD — lower, -0.394 ± 0.65
- WGSMYRYFVDGSWFVVDISP — lower, -0.26 ± 0.27
- PDSMGKVIYYKSESCFYSRG — higher, 2.72 ± 0.086
- WAIRPSRYYITAYAVELHCD — higher, 9.114 ± 0.074
- TSHVGL — lower, -1.39 ± 0.49
- MNIFKYFQSSSETMLTLKCT — within error, -0.724 ± 1
- TKPNVW — within error, -0.067 ± 0.8
- VWLEACGFSRIFSLQFLVSV — within error, -0.476 ± 0.76
- ESTAWAQVIPDNRLCGRNCR — within error, -0.153 ± 1.1
- LDNWEL — within error, 0.145 ± 0.16
- NTVHWSDSCRLFPHRDQQCF — lower, -0.694 ± 0.61
- TFLWK — lower, -0.349 ± 0.55
- EKQKWYYLELREAAQC — within error, 0.284 ± 0.2
- YGWRSRYVPCPAGRRCVMSQ — within error, 0.53 ± 0.2
- RSCPFAFGEGG — within error, 0.782 ± 0.55
- KTCTLIGAMLIA — lower, -0.385 ± 0.56
- KRGCNQHFNSMRYLVMFLVS — lower, -0.915 ± 0.62
- TVYGHRVGGRSFVL — within error, 0.295 ± 0.28
- SCSVCWSLSMV — higher, 1.31 ± 0.36
- CVLQNWYSTSTPKSWLRGNV — within error, 0.678 ± 0.41
- CMGNSYFMFNSYANFKNNWA — higher, 5.54 ± 0.093
- LNLLDGWFL — lower, -0.7 ± 0.48
- NLVFSTRIHKFFLNRGEG — higher, 5.15 ± 0.058
- SWHPRKRWNVCERF — within error, 0.273 ± 0.49
- YLCAFVRWWYR — within error, -0.029 ± 1.1
- TYYKRN — lower, -0.4 ± 0.34
- LKLASSGVHCLLFSYCRMAE — within error, 0.69 ± 0.62
- NCYFKLSYEDMIRQCKRLNE — higher, 3.44 ± 0.069
- ARVRVYRWWTLATTWGRVGF — higher, 2.85 ± 0.14
- CLIDFWKRDFKSAVDSKGTA — within error, 0.125 ± 0.65
- LGSLNNPA — higher, 7.941 ± 0.077
- RKWQED — within error, 0.488 ± 0.47
- RTYGYRDIQVQYRFCFCRGD — higher, 8.589 ± 0.057
- YYQRLRVHLYADIELYATLC — within error, 0.266 ± 0.6
- VSQFYSMPLTSSYWSLVSSL — within error, 0.147 ± 0.65
- LLPSSFVGGVNDVVELLSCG — within error, 0.092 ± 1.1
- LTSNTNSRMLRCSIMVQQS — within error, -0.087 ± 0.45
- RILLRRAKFGSR — within error, 0.432 ± 0.21
- LMIGSEDAMNYGCSCNPYLF — lower, -1.04 ± 0.33
- LFSVVLVGGARRSYLRGGPG — within error, 0.611 ± 0.81
- VRFSQKYCSVDIAMQRLFMV — lower, -0.625 ± 0.25
- HKGVM — lower, -1.06 ± 0.5
- SMYSYHHSYRSDTKTSNFFW — higher, 3.4 ± 0.072
- SYTSGYLLVYPFVNIVVFYP — lower, -1.64 ± 1.1
- LLGLHELSTS — within error, 0.334 ± 0.46
- RLSFQSCCLPFVYWNWW — higher, 7.738 ± 0.048
- VFSGTSMRGTEEIKMSWCEK — higher, 7.686 ± 0.044
- NFYAYIIVDCSWMCSTCYSL — higher, 5.52 ± 0.044
- DMAKGVLRSLFGTA — lower, -0.154 ± 0.36
- FLSKFSCEVKTPDLMSCGKG — higher, 4.04 ± 0.096
- GPIYLWFSFKSRCQSSCHDV — lower, -0.866 ± 0.48
- WRQSVQ — higher, 1.12 ± 0.33
- SLQSDQSADFREDKGRSKAE — within error, 0.898 ± 0.32
- STMKC — within error, -0.29 ± 0.56
- SNNFFNGMICSLFAGGC — higher, 7.55 ± 0.082
- LDRMSRIRGSCRYACVL — higher, 1.15 ± 0.41
- PGSNALVGLTIRCNVILKGG — higher, 4.68 ± 0.086
- NFFNFSDMYRYGNKIWGGAN — within error, 0.208 ± 1.1
- IARSKVGRRYHVGRFRCVCV — within error, -0.095 ± 0.44
- WHSHMYNWWEQ — higher, 1.09 ± 0.28
- SVNYMAFWKVPTCGLQGGKG — within error, -0.097 ± 0.76
- LWNVD — higher, 2.94 ± 0.19
- QWVVLVD — within error, -0.016 ± 0.65
- GLRTLERSDVSVGVRRYLG — higher, 1.33 ± 0.51
- IITGLQFLD — lower, -0.691 ± 0.79
- LAQLQ — within error, -0.504 ± 0.78
- GFSLVW — lower, -0.413 ± 0.41
- HNEPG — lower, -1.2 ± 0.75
- LMKSIVGFMNESPLVIEFGR — lower, -0.402 ± 0.27
- ALVCLMKSSFCTCEHLYDVR — higher, 7.168 ± 0.044
- LTMQKWLF — within error, 0.28 ± 0.62
- NLHLGMEFTCELRCYWIRLP — within error, 0.279 ± 0.5
- YCGLFKGYVYRL — lower, -1.43 ± 0.55
- ERIHSSCNYTFAFLLGFMSV — within error, 0.053 ± 0.54
- HRTKRGRHFIFRTCKQYYPG — higher, 2.81 ± 0.071
- EALMMVYGWEKTD — within error, 0.733 ± 0.24
- RISKRAHECLIMQG — within error, -0.108 ± 1.1
- FRVIYDRHTGILRSHERAKG — lower, -0.551 ± 0.35
- FCLFFLASQIIVMGVTTYTG — within error, -0.313 ± 0.76
- FKFVGNSQAQVWNMCESNDS — within error, -0.369 ± 0.64
- VVYTRIEVILSGDLSPREMV — within error, 0.763 ± 0.24
- ATKVISALSIRMRRK — higher, 1.32 ± 0.3
- RVMFYVINEVWDMNSARTNT — higher, 6.38 ± 0.08
- AEMVSANRLSKCEMTIRLWD — higher, 3.64 ± 0.077
- ICIHYANNLLVNMRTKMCHK — higher, 9.369 ± 0.054
- FFTIVMRRSILFCIFLVIDA — lower, -1.6 ± 0.49
- VSPNPIWIVEKWPI — lower, -1.63 ± 0.62
- IDFKHVL — lower, -0.964 ± 0.39
- LATLRLWVTCQRIGISRRKG — higher, 7.017 ± 0.037
- CRLVEAEYSSRKRLQVSLWA — within error, 0.102 ± 0.79
- RFVIVIPQFYYVYFLRRSWT — lower, -1.24 ± 1
- FVIVVFRPLGKWQRLFFCNC — within error, 0.811 ± 0.21
- LFEDVMRKGRWRDASGRWKH — higher, 3.27 ± 0.17
- MPIEVILCFGG — higher, 1.84 ± 0.34
- KIFNSSSFFQL — within error, 0.098 ± 0.65
- VSCCNLVVDLKRTILLFGGR — higher, 7.504 ± 0.052
- TWHKFVSCDCGLH — within error, 0.677 ± 0.47
- ANSAYCIGLCLGNCFMSYFC — higher, 7.452 ± 0.043
- LYFRYWVMDSQASNFHRCRG — within error, -0.14 ± 1
- LCWLIVGKCGKGKTYDGFIG — within error, -0.78 ± 1.1
- SYVMFSIMEH — within error, 0.354 ± 0.65
- YIGQVGYRCSAVGQSYSRPG — higher, 1.87 ± 0.47
- TLKEGRWEVPCLIWIWRVWS — higher, 1.6 ± 0.36
- FIRSSIVWCC — higher, 6.04 ± 0.077
- TNRRILSFGVNL — within error, -0.427 ± 0.78
- HRVWRVAFVQVRSFIY — within error, -0.038 ± 1
- ICVECSYVYMTGGKV — higher, 3.79 ± 0.057
- PPCYALDRFLSGSLTVLSPV — lower, -0.36 ± 0.35
- RIKMGSSGNLCFIWSMHMYD — higher, 6.496 ± 0.044
- IGIDRL — within error, -0.069 ± 0.49
- SLCGRRFNTDEPLLETRSSL — within error, 0.817 ± 0.51
- VIEMRHDRFFTVYSVEITAG — within error, 0.623 ± 0.52
- KTCVPDYNNGWRFDFAYLD — lower, -0.795 ± 0.45
- SRDVLVLIGYFSCGVIDSAL — higher, 5.16 ± 0.082
- IICAKDMFNLFIKVRQYGWS — higher, 4.698 ± 0.038
- FYLGYQTRCYSLIGDIE — higher, 3.51 ± 0.05
- VVSERRAFVRGVFDWIITLD — within error, -0.02 ± 0.55
- CAGMWRFMGMVFGISTLFQC — lower, -1.44 ± 0.41

In the case of NGSMIKWDRFASCILHAML, the amyloid nucleation score is reported as “inactive”.
For QSVYLPLRNVIFPVVVSKCE, the amyloid nucleation score was “inactive”.
For HNRSFILNTAKFLVVNNPLA, the amyloid nucleation score was “inactive”.
In the case of SYLHGDNQLGLSGASFRSRW, the amyloid nucleation score is reported as “inactive”.
For RLINRSDEVYSFLFKRRGSK, the amyloid nucleation score was “inactive”.
For QIYSMDMQRMNKCCCEDGEV, the amyloid nucleation score was “inactive”.
In the case of FGNSDLNRAMLKRAKQMRSL, the amyloid nucleation score is reported as “inactive”.
In the case of FQIRT, the amyloid nucleation score is reported as “inactive”.
With FPFFLHLFNYLLVRCLTVGF the amyloid nucleation score was “inactive”.
In the case of MPPHSVSVITNSHF, the amyloid nucleation score is reported as “inactive”.
With VFYNIL the amyloid nucleation score was “inactive”.
In the case of EDFRGLIKL, the amyloid nucleation score is reported as “inactive”.
With YNGPLHYDRNDSSVKQSVFI the amyloid nucleation score was “inactive”.
For TKLYNDIFHNW, the amyloid nucleation score was “inactive”.
For NGGLLYDI, the amyloid nucleation score was “inactive”.
With LDYFNYCSSLGFHMVSVVYV the amyloid nucleation score was “inactive”.
For IDNYFIRVKTFSDFMSSLDG, the amyloid nucleation score was “inactive”.
For WDTHLYQDMGCFAHLFIRYF, the amyloid nucleation score was “inactive”.

Source: the supplement of paper PMC12042874
